Reference: PMC10288270, “Study on the Role of an Erythrocyte Membrane‐Coated Nanotheranostic System in Targeted Immune Regulation of Alzheimer's Disease”

Target: Amyloid beta 1-42 (UniProt P05067 672-713)
Assay: fluorescence recovery (FAM/BHQ1 dequenching); Abeta 0-160 ug/mL, 2 h; TBS: 1 mM Tris-HCl, 100 mM NaCl, 4 mM MgCl2, 5 mM KCl, pH 7.4; 37 C, 2 h; aptamer refolded from 95 C; 2 uL of 10 uM aptamer
Conditions: protein: commercial; label: 5' 6-FAM, 3' BHQ1 as printed in Methods (Results text states FAM 3', BHQ 5'); hairpin (stated design)

Sequence of Amyloid beta 1-42 (P05067 672-713): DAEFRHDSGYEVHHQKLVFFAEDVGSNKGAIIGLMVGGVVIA

TGGGGGGCGGACGATAGGGGCCCCCCGGTAGGATGGACG (structured_DNA) [Abeta aptamer (AAP)]: binds.
